According to paper PMC3347801:

biological target: human CD81 large extracellular loop fused to glutathione S-transferase (UniProt P60033); test: CD81 binding assay (immobilized GST-CD81 LEL capture of E1E2 from cell lysate, detection with anti-E2 serum R646); details: lysate concentration normalized for reactivity with AP33 and ALP98 mAbs in a GNA ELISA; mock signal subtracted; triplicate; parent: est. 100; read off a plot
Sequence of UniProt P60033 (P60033 113-201): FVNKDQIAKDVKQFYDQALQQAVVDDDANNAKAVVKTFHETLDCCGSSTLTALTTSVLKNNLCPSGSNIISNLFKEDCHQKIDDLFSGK

**Q.** For “HCV envelope glycoprotein E1, wild type (genotype 1a strain H77c) (from UniProt P27958) in218 (VFKHD inserted after D218)”, which percent of parent is on record?
**A.** The percent of parent was 93 % of WT.

**Q.** For “HCV envelope glycoprotein E1, wild type (genotype 1a strain H77c) (from UniProt P27958) in263 (CLNID inserted after D263)”, which percent of parent is on record?
**A.** Its percent of parent is 93 % of WT.

**Q.** For “HCV envelope glycoprotein E1, wild type (genotype 1a strain H77c) (from UniProt P27958) in324 (FKQMM inserted after M324)”, which percent of parent is on record?
**A.** Its percent of parent is 88 % of WT.

**Q.** For “HCV envelope glycoprotein E1, wild type (genotype 1a strain H77c) (from UniProt P27958) in341 (LFKHP inserted after P341)”, which percent of parent is on record?
**A.** The percent of parent was 100 % of WT.

**Q.** “HCV envelope glycoprotein E1, wild type (genotype 1a strain H77c) (from UniProt P27958) in343 (CLNKA inserted after A343)” was tested. Which percent of parent did it give?
**A.** Its percent of parent is 66 % of WT.

**Q.** Which percent of parent does the source give for “HCV envelope glycoprotein E2, wild type (genotype 1a strain H77c) (from UniProt P27958) in413 (MFKQL inserted after L413)” here?
**A.** Its percent of parent is 72 % of WT.

**Q.** How did the percent of parent turn out when “HCV envelope glycoprotein E2, wild type (genotype 1a strain H77c) (from UniProt P27958) in422 (MFKHI inserted after I422)” was run?
**A.** Its percent of parent is 22 % of WT.

**Q.** Which percent of parent does the source give for “HCV envelope glycoprotein E2, wild type (genotype 1a strain H77c) (from UniProt P27958) in424 (CLNNS inserted after S424)” here?
**A.** Its percent of parent is 25 % of WT.

**Q.** With “HCV envelope glycoprotein E2, wild type (genotype 1a strain H77c) (from UniProt P27958) in531 (MFKHA inserted after A531)” as the substance, how does the percent of parent read?
**A.** Its percent of parent is 18 % of WT.

**Q.** Which percent of parent does the source give for “HCV envelope glycoprotein E2, wild type (genotype 1a strain H77c) (from UniProt P27958) in533 (CLNND inserted after D533)” here?
**A.** Its percent of parent is 19 % of WT.

**Q.** With “HCV envelope glycoprotein E2, wild type (genotype 1a strain H77c) (from UniProt P27958) in540 (CLNIN inserted after N540)” as the substance, how does the percent of parent read?
**A.** The percent of parent was 59 % of WT.

**Q.** Which percent of parent does the source give for “HCV envelope glycoprotein E2, wild type (genotype 1a strain H77c) (from UniProt P27958) in549 (CLNNW inserted after W549)” here?
**A.** Its percent of parent is 45 % of WT.

**Q.** How did the percent of parent turn out when “HCV envelope glycoprotein E2, wild type (genotype 1a strain H77c) (from UniProt P27958) in573 (CLNRG inserted after G573)” was run?
**A.** The percent of parent was 98 % of WT.

**Q.** How did the percent of parent turn out when “HCV envelope glycoprotein E2, wild type (genotype 1a strain H77c) (from UniProt P27958) in587 (CLNIR inserted after R587)” was run?
**A.** The percent of parent was 83 % of WT.

**Q.** For “HCV envelope glycoprotein E2, wild type (genotype 1a strain H77c) (from UniProt P27958) in611 (LFKHY inserted after Y611)”, which percent of parent is on record?
**A.** Its percent of parent is 34 % of WT.

**Q.** Which percent of parent does the source give for “HCV envelope glycoprotein E2, wild type (genotype 1a strain H77c) (from UniProt P27958) in614 (LFKHR inserted after R614)” here?
**A.** The percent of parent was 25 % of WT.

**Q.** For “HCV envelope glycoprotein E2, wild type (genotype 1a strain H77c) (from UniProt P27958) in620 (CLNTC inserted after C620)”, which percent of parent is on record?
**A.** Its percent of parent is 23 % of WT.

**Q.** How did the percent of parent turn out when “HCV envelope glycoprotein E2, wild type (genotype 1a strain H77c) (from UniProt P27958) in630 (CLNIR inserted after R630)” was run?
**A.** The percent of parent was 33 % of WT.

**Q.** How did the percent of parent turn out when “HCV envelope glycoprotein E2, wild type (genotype 1a strain H77c) (from UniProt P27958) in682 (LFKHL inserted after L682)” was run?
**A.** Its percent of parent is 83 % of WT.

**Q.** How did the percent of parent turn out when “HCV envelope glycoprotein E2, wild type (genotype 1a strain H77c) (from UniProt P27958) in692 (LFKHL inserted after L692)” was run?
**A.** The percent of parent was 82 % of WT.

**Q.** For “HCV envelope glycoprotein E2, wild type (genotype 1a strain H77c) (from UniProt P27958) in726 (FKHLL inserted after L726)”, which percent of parent is on record?
**A.** Its percent of parent is 72 % of WT.

**Q.** For “HCV envelope glycoprotein E2, wild type (genotype 1a strain H77c) (from UniProt P27958) in732 (CLNIC inserted after C732)”, which percent of parent is on record?
**A.** Its percent of parent is 77 % of WT.

**Q.** Which percent of parent does the source give for “HCV envelope glycoprotein E2, wild type (genotype 1a strain H77c) (from UniProt P27958) in734 (CLNTC inserted after C734)” here?
**A.** Its percent of parent is 96 % of WT.
